± gives the uncertainty stated by the source.

The nature of the data set: amyloid nucleation score (Sup35N fusion, yeast selection) (log enrichment); library NNK1; higher = more nucleation; inactive = no reads after selection. The procedure, abridged: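 Three technical output replicates were used for random libraries. Psi-negative yeast expressing peptides of 20 random codons fused to Sup35N were induced with 100 μM copper sulfate for 24 hours and grown 7 days at 30°C on medium lacking adenine and uracil, and input and output plasmid inserts were Illumina-sequenced, excluding sequences with under 100 input reads. The nucleation score is the DiMSum log enrichment of output over input reads, centred on the mode score of non-aggregating sequences.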

For YILKGNYLYRRVQLDLRTRR, the amyloid nucleation score was -0.244 ± 0.28.

MCKYVMRVLHIVAG gave an amyloid nucleation score of 0.699 ± 0.42.

As to PSALFFSVTLKVHINLAISS, the amyloid nucleation score was determined as 0.431 ± 0.53.

VDVCCDGYRYLW gave an amyloid nucleation score of -0.754 ± 0.39.

As to TKMHCVGGSSRTNKSLWTIY, the amyloid nucleation score turned out to be 1.08 ± 0.57.

In the case of HGIFEGRITVILKGY, the amyloid nucleation score is 4.05 ± 0.15.

As to LMWSMPNGTSYGNGPVEWTG, the amyloid nucleation score is -0.515 ± 0.81.

In the case of MCSKWDFQVLSHTDSWVWV, the amyloid nucleation score is -0.67 ± 0.5.

In turn, LLAPAS showed an amyloid nucleation score of 0.032 ± 0.35.

The substance YIDVFVSRVLHSGFERSDVV displayed an amyloid nucleation score of 0.745 ± 0.2.

For the substance RCSGYRFRFTVRRTSLCFVK, the amyloid nucleation score is -0.447 ± 1.2.

Substance CARSVCKSQYSSMSMPYLIV showed an amyloid nucleation score of 0.782 ± 0.39.

As to GCRGSFVEGWIAHMADGSFI, the amyloid nucleation score was -0.577 ± 0.57.

In the case of AGGLLYMLTHLNDVHSVKRY, the amyloid nucleation score is 1.12 ± 0.93.

With VRLCIVHHG, the amyloid nucleation score is 0.527 ± 0.49.

Consider TYSWEDCTYGITPSGTYRSN, for which the amyloid nucleation score turned out to be 1.33 ± 0.38.

Consider FIQNGV, for which the amyloid nucleation score was 0.659 ± 0.79.

In turn, TYMFGHMGADMKGRRSWWCE displayed an amyloid nucleation score of 0.354 ± 0.44.

CEGCSWFSCSF showed an amyloid nucleation score of 0.749 ± 0.48.

In turn, KAKTFI showed an amyloid nucleation score of 0.268 ± 1.2.

The substance FDVMKFYIYLGYSVVPVM registered an amyloid nucleation score of -1.09 ± 0.43.

Regarding KKVGRHFDLCALDRTQSGCW, the amyloid nucleation score is -0.162 ± 0.39.

The substance CYVLRSRSCLVFLMVYRGRV returned an amyloid nucleation score of 4.95 ± 0.073.

In turn, FVLGWQI displayed an amyloid nucleation score of 1.63 ± 0.56.

RKLFYG showed an amyloid nucleation score of -0.017 ± 0.39.

The substance ENVAITMVLPSAKMGSYMDG gave an amyloid nucleation score of 0.453 ± 1.2.

On to MRFGLRYKALALRVFVEMTA, for which the amyloid nucleation score result is “inactive”.

For FTCRFFVCFGLCGDHEHSPI, the amyloid nucleation score stood at 7.561 ± 0.057.

In the case of ILSIFLYWAILLRSCQYLYW, the amyloid nucleation score was -0.949 ± 0.4.

For the substance CLVFWETECSA, the amyloid nucleation score was -0.323 ± 0.29.

In turn, ASYMYAPSIFYSERLKWNPS returned an amyloid nucleation score of 0.226 ± 0.78.

FGFSKWSSMLIRHQPYDLFI: the amyloid nucleation score was -1.1 ± 1.

For the substance LDNIMVCNYAE, the amyloid nucleation score result was “inactive”.

Substance ARATS gave an amyloid nucleation score of -0.53 ± 0.52.

The substance GTSMRFGGGVIF had an amyloid nucleation score of -0.721 ± 0.49.

GRIQCHYGLSVYNGFESGTG: the amyloid nucleation score worked out at 0.279 ± 0.83.

In the case of RIRLVCHCPFSYRLAVPLSE, the amyloid nucleation score worked out at 3.99 ± 0.1.

VSMATAVF registered an amyloid nucleation score of 1.22 ± 0.64.

On to SNKIGVCSKLMISFPCIEYN, for which the amyloid nucleation score is -0.065 ± 1.1.

With SHKRIWDIFNIGFHQCD, the amyloid nucleation score was 0.048 ± 0.59.

SLAYCSFHMLKIPLRSGPTW: the amyloid nucleation score is 0.01 ± 1.2.

As for GWSSFWGPLVCARVWRRIGE, the amyloid nucleation score was determined as 0.433 ± 0.54.

In the case of YLCPVRDFNGLYGLVFM, the amyloid nucleation score was -0.756 ± 1.7.

In the case of VNAPST, the amyloid nucleation score was 0.413 ± 1.1.

VGYLFRSTSFV: the amyloid nucleation score entry is “inactive”.

Regarding LDARKKARMWRNTIDMDELV, the amyloid nucleation score entry is “inactive”.

The substance GSSWYNNPVQGILGGYNL showed an amyloid nucleation score of -0.348 ± 0.47.

On to YVVIAEPGYSRDMISLMERC, for which the amyloid nucleation score was -1.16 ± 1.3.

In the case of VGVYGRYIV, the amyloid nucleation score was -0.135 ± 0.28.

Regarding SIPNSAQHFTSPPARFHSTG, the amyloid nucleation score was found to be 0.042 ± 0.69.

DTPNISAFYLWNLRKRLMIF: the amyloid nucleation score was -0.023 ± 0.31.

For the substance EKLTKTYGTRFNKVKLFL, the amyloid nucleation score came out at 0.294 ± 0.41.

Take WWLFHVFLLKRQSITNAGVR: the amyloid nucleation score result was “inactive”.

With LSVNICKKY, the amyloid nucleation score amounted to 3.5 ± 0.1.

On to RDASRVVCMRPRWGPFQVVV, for which the amyloid nucleation score was determined as 0.222 ± 0.69.

SQLWCLTNKHRKQQRKAGHY: the amyloid nucleation score amounted to 0.027 ± 0.53.

SIIFGVKTFSVFSKIYGLCW: the amyloid nucleation score turned out to be 3.3 ± 0.067.

On to WSFTK, for which the amyloid nucleation score was -0.284 ± 0.68.

As for SCACYGWSVYSLGNANRVLS, the amyloid nucleation score came out at 0.465 ± 0.69.

In turn, ALVRL registered an amyloid nucleation score of 0.085 ± 0.46.

The substance QDLICVFMGCVIS came in with an amyloid nucleation score of 7.942 ± 0.044.

In turn, YPRPLWANRRPC registered an amyloid nucleation score of -0.151 ± 0.66.

As for TFMAARQWLGPNYDGGQGLK, the amyloid nucleation score was -0.2 ± 1.

Regarding ARSTSALQL, the amyloid nucleation score is -1.97 ± 1.8.

In the case of DSLLEIGRSGVNELVGGLAD, the amyloid nucleation score was -0.422 ± 1.2.

Turning to RCDRTGQRRALDRGSCFLVE, the amyloid nucleation score is -0.46 ± 1.1.

Turning to CMRFAPMMHANCHVKARWHR, the amyloid nucleation score amounted to 0.696 ± 0.6.

Substance FKSYPVGIRRHCHGTSMLMG registered an amyloid nucleation score of 0.059 ± 0.31.

IIFHICRTGEDLTKSGCLSW showed an amyloid nucleation score of -0.494 ± 1.1.

CTLSYCWWMAQYPDISRLIT returned an amyloid nucleation score of -0.362 ± 0.74.

Regarding LTCMLVRRFGNFIDDSYARA, the amyloid nucleation score was -1.2 ± 0.5.

For TLEFLMPSYLFHLGRMVNLS, the amyloid nucleation score is -0.927 ± 1.4.

Consider TNCDVVNSCTFGGNGDY, for which the amyloid nucleation score was 0.151 ± 1.1.

The substance YMTWL showed an amyloid nucleation score of 0.676 ± 0.44.

Substance FFLILRVRLYCTSICQAYAN showed an amyloid nucleation score of 0.451 ± 0.48.

As for AAMAYFWADRLKHGFYTW, the amyloid nucleation score is 4.74 ± 0.092.

On to MNVTCDGRMGIQVDPVRYNR, for which the amyloid nucleation score is -0.122 ± 1.4.

GVVGVNSADLFNGKIVIKFS: the amyloid nucleation score was 1.81 ± 0.2.

Consider LGAQGLFVYSLLCQT, for which the amyloid nucleation score is -0.126 ± 0.68.

The substance IVLMLCV showed an amyloid nucleation score of -0.097 ± 0.36.

SPEGSPNEHDYTIPAVRGGP came in with an amyloid nucleation score of 0.775 ± 0.38.

The substance FSRFLYEYGCGELVATFLPW yielded an amyloid nucleation score of 0.517 ± 0.24.

CWPRG returned an amyloid nucleation score of 0.326 ± 0.55.

The substance RWAWVDYNLCRVCLTKYS returned an amyloid nucleation score of -0.161 ± 0.58.

In turn, FGLIVQTIMFRWHQKGSNFE came in with an amyloid nucleation score of -1.05 ± 2.7.

GSCLISRT came in with an amyloid nucleation score of 1.02 ± 0.5.

For the substance RWMPFISLSVNLTGNYLIRL, the amyloid nucleation score came to 2.25 ± 0.27.

With LSCSFDESW, the amyloid nucleation score is 0.024 ± 0.24.

Take FNIAALSEYCGPLKSNAHW: the amyloid nucleation score is -0.27 ± 0.64.

Substance RNNQSHGMNYFFESCVVFYC yielded an amyloid nucleation score of 7.8 ± 0.047.

FLKLPFTKSSWSF returned an amyloid nucleation score of -0.317 ± 1.4.

Regarding VWDSFSHVLVRLGIYLFFYV, the amyloid nucleation score was determined as 0.763 ± 0.42.

PVQDGSLGCQSHYCSRYCYV displayed an amyloid nucleation score of -0.129 ± 0.46.

Substance PVMFVDSMSVWVLLVCYRR registered an amyloid nucleation score of 0.19 ± 0.74.

As to FSCSTCNVCNERHPEVFTYD, the amyloid nucleation score came out at 1.15 ± 0.51.

In the case of QGISPLRWAVLYRFMYGCVR, the amyloid nucleation score is -0.209 ± 0.57.

In turn, EAARMWSFNGNLSVFWIT showed an amyloid nucleation score of 5.72 ± 0.097.

In turn, EVATGSGERIQLCQVQSVNT displayed an amyloid nucleation score of 1.6 ± 0.55.

LAVERGHCIQVRGLKCLIES: the amyloid nucleation score was 1.66 ± 0.47.

As for LHLECLWCLARTSYF, the amyloid nucleation score worked out at 8.244 ± 0.045.

On to HKRLVGSYWFIFYSVTRYQE, for which the amyloid nucleation score is -0.685 ± 1.7.

Consider SGGPWVNCNFNT, for which the amyloid nucleation score is 0.494 ± 0.47.

The substance SVNLSI yielded an amyloid nucleation score of -0.196 ± 0.37.

GHGYCLSWFNGNDPRGTTTT displayed an amyloid nucleation score of 1.1 ± 0.7.

Values taken from the supplement of paper PMC12042874.
